Experiment [1] deals with CLDN18.2 (antigen of the ka/kd/KD measurement, species and form not stated). As to the kind of experiment: affinity measurement, method not described.
Experiment [2] shares this target. As to the kind of experiment: affinity measurement, method not described (Table 2-2).

One may read the Kd as the constant that tells how readily two partners part at equilibrium. Low readings indicate tighter binding, high ones weaker binding. Regarding IMAB362 (antibody), the Kd in experiment [1] and in experiment [2] was 4.17 nM throughout.

The record behind these values is patent CN116003603A.
